Residue numbers refer to the chain shown, from its start. Names may count otherwise. Read-outs that look alike come from different tables or passages of the source.
Assays:
[1] = biological target: T1, human 4-1BB on the surface of HEK293 cells (HEK293-Hu4-1BB) (human, UniProt Q07011 24-255); experiment: cell-based or functional assay
[2] = biological target: T1, human 4-1BB on the surface of HEK293 …; experiment: cell-based or functional assay; remark: listed apart in the source
[3] = biological target: T2, human CD40 on the surface of HEK293 cells (HEK293-HuCD40) (human, UniProt P25942 21-277); experiment: cell-based or functional assay
[4] = biological target: T2, human CD40 on the surface of HEK293 …; experiment: cell-based or functional assay; remark: listed apart in the source
[5] = biological target: T2, human CD40 on the surface of HEK293 …; experiment: cell-based or functional assay; remark: listed apart in the source
[6] = biological target: T3, human FAP on the surface of CHO-K1 cells (CHO-K1-HuFAP) (human, UniProt Q12884 1-760); experiment: FACS, CHO-K1-HuFAP cells
T3 construct: whole, on cells; also called CHO cell line overexpressing human FAP; FAP on the surface of CHO-K1-HuFAP cells

[7] = biological target: T3, human FAP on the surface of CHO-K1 …; experiment: FACS, CHO-K1-HuFAP cells; remark: listed apart in the source
[8] = biological target: T2, human CD40 on the surface of HEK293 …; experiment: FACS, HEK293-HuCD40 cells
[9] = biological target: T2, human CD40 on the surface of HEK293 …; experiment: FACS, HEK293-HuCD40 cells; remark: listed apart in the source
[10] = biological target: T1, human 4-1BB on the surface of HEK293 …; experiment: FACS, HEK293-Hu4-1BB cells
[11] = biological target: T1, human 4-1BB on the surface of HEK293 …; experiment: FACS, HEK293-Hu4-1BB cells; remark: listed apart in the source
[12] = biological target: T2, human CD40 on the surface of HEK293 …; experiment: cell-based or functional assay; remark: listed apart in the source
[13] = biological target: T2, human CD40 on the surface of HEK293 …; experiment: FACS, HEK293 cells transiently expressing human CD40
[14] = biological target: T4, h-FAP-His (recombinant human fibroblast activation protein, Leu26-Asp760, His-tagged) (human, UniProt Q12884 26-760); experiment: ELISA, plate coated with human FAP-His
T4 construct: range 26-760; Bought protein with a His tag; also called human FAP-His protein; His-tagged FAP recombinant protein

[15] = biological target: T3, human FAP on the surface of CHO-K1 …; experiment: FACS, CHO cell line overexpressing human FAP
[16] = biological target: T4, h-FAP-His (recombinant human fibroblast …); experiment: SPR, antibody captured by anti-human IgG (Fc) on CM5 chip, h-FAP-His as analyte
[17] = biological target: T1, human 4-1BB on the surface of HEK293 …; experiment: cell-based or functional assay; remark: listed apart in the source
[18] = biological target: T1, human 4-1BB on the surface of HEK293 …; experiment: cell-based or functional assay; remark: listed apart in the source
[19] = biological target: T1, human 4-1BB on the surface of HEK293 …; experiment: FACS, HEK293-Hu4-1BB cells; remark: listed apart in the source
[20] = biological target: T1, human 4-1BB on the surface of HEK293 …; experiment: FACS, HEK293-Hu4-1BB cells; remark: listed apart in the source
[21] = biological target: T1, human 4-1BB on the surface of HEK293 …; experiment: FACS, HEK293-Hu4-1BB cells; remark: listed apart in the source

B1: Ab10-A12V2-2 (FAP/CD40 bispecific antibody molecule, control) (bispecific antibody, human IgG1, kappa, L234A L235A)
heavy: not shown
light: DIQMTQSPSSVSASVGDRVTITCRASQGISSWLAWYQQKPGKAPKLLIYAASSLQSGVPSRFSGSGSGTDFTLTISSLQPEDFATYYCQQANSFPPAFGQGTKVEIKRTVAAPSVFIFPPSDEQLKSGTASVVCLLNNFYPREAKVQWKVDNALQSGNSQESVTEQDSKDSTYSLSSTLTLSKADYEKHKVYACEVTHQGLSSPVTKSFNRGEC
- 4-1BB/NF-κB luciferase reporter, CD40-crosslinked, Fold change in Emax [1]: 1.1 fold
- 4-1BB/NF-κB luciferase reporter, FAP-crosslinked, Fold change in Emax [1]: 1.05 fold
- 4-1BB/NF-κB luciferase reporter, uncrosslinked, Fold change in Emax [1]: 1.06 fold
- 4-1BB/NF-κB luciferase reporter, CD40-crosslinked, Fold change in Emax [2]: 1.07 fold
- 4-1BB/NF-κB luciferase reporter, FAP-crosslinked, Fold change in Emax [2]: 1.01 fold
- 4-1BB/NF-κB luciferase reporter, uncrosslinked, Fold change in Emax [2]: 1.1 fold
- CD40/NF-κB reporter (HEK-Blue CD40L), 4-1BB-crosslinked, Fold change in Emax [3]: 8.42 fold
- CD40/NF-κB reporter (HEK-Blue CD40L), FAP-crosslinked, EC50 [3]: 0.025 nM
- CD40/NF-κB reporter (HEK-Blue CD40L), FAP-crosslinked, Fold change in Emax [3]: 11.9 fold
- CD40/NF-κB reporter (HEK-Blue CD40L), uncrosslinked, Fold change in Emax [3]: 7.05 fold
- CD40/NF-κB reporter (HEK-Blue CD40L), 4-1BB-crosslinked, Fold change in Emax [4]: 5 fold
- CD40/NF-κB reporter (HEK-Blue CD40L), FAP-crosslinked, EC50 [4]: 0.23 nM
- CD40/NF-κB reporter (HEK-Blue CD40L), FAP-crosslinked, Fold change in Emax [4]: 6.47 fold
- CD40/NF-κB reporter (HEK-Blue CD40L), uncrosslinked, Fold change in Emax [4]: 4.57 fold
- CD40/NF-κB reporter (HEK-Blue CD40L), 4-1BB-crosslinked, Fold change in Emax [5]: 4.27 fold
- CD40/NF-κB reporter (HEK-Blue CD40L), FAP-crosslinked, EC50 [5]: 0.35 nM
- CD40/NF-κB reporter (HEK-Blue CD40L), FAP-crosslinked, Fold change in Emax [5]: 11.3 fold
- CD40/NF-κB reporter (HEK-Blue CD40L), uncrosslinked, Fold change in Emax [5]: 3.73 fold
- EC50 [6]: 1.72 nM
- Maximum fluorescence value [6]: 77200
- EC50 [7]: 2.73 nM
- Maximum fluorescence value [7]: 82700
- EC50 [8]: 4.77 nM
- Maximum fluorescence value [8]: 54000
- EC50 [9]: 6.85 nM
- Maximum fluorescence value [9]: 55200
- Maximum fluorescence value [10]: 73
- Maximum fluorescence value [11]: 70

B2: anti-CD40 nanobody A297 linked to human IgG1-Fc (C220A, S267E, L328F) (Fc fusion)
chain: QVQLVESGGGMVEPGGSLRLSCAASGFTFSRYGMKWVRQAPGKGPEWVSTINSHGDTTYYADSVKGRFTISRDNAQNTVYLQMNSLKPEDTALYYCLRIDYSDYSSRGQGTQVTVSSEPKSADKTHTCPPCPAPELLGGPSVFLFPPKPKDTLMISRTPEVTCVVVDVEHEDPEVKFNWYVDGVEVHNAKTKPREEQYNSTYRVVSVLTVLHQDWLNGKEYKCKVSSKAFPAPIEKTISKAKGQPREPQVYTLPPSRDELTKNQVSLTCLVKGFYPSDIAVEWESNGQPENNYKTTPPVLDSDGSFFLYSKLTVDKSRWQQGNVFSCSVMHEALHNHYTQKSLSLSPGK
notes: VHH-Fc; no linker between VHH and Fc is stated
- FcγRIIb-mediated activation of HEK-Blue CD40L cells, EC50 [12]: 0.243 nM
- EC50 [13]: 1.12 nM

B3: humanized anti-CD40 nanobody A297V3 linked to human IgG1-Fc (C220A, S267E, L328F) (Fc fusion)
chain: EVQLVESGGGLVQPGGSLRLSCAASGFTFSRYGMKWVRQAPGKGLEWVSTINSHGDTTYYADSVKGRFTISRDNAKNSLYLQMNSLRAEDTAVYYCLRIDYSDYSSRGQGTLVTVSSEPKSADKTHTCPPCPAPELLGGPSVFLFPPKPKDTLMISRTPEVTCVVVDVEHEDPEVKFNWYVDGVEVHNAKTKPREEQYNSTYRVVSVLTVLHQDWLNGKEYKCKVSSKAFPAPIEKTISKAKGQPREPQVYTLPPSRDELTKNQVSLTCLVKGFYPSDIAVEWESNGQPENNYKTTPPVLDSDGSFFLYSKLTVDKSRWQQGNVFSCSVMHEALHNHYTQKSLSLSPGK
notes: VHH-Fc
- FcγRIIb-mediated activation of HEK-Blue CD40L cells, EC50 [12]: 0.006 nM
- EC50 [13]: 1.25 nM

B4: anti-human FAP monoclonal antibody Ab10 (antibody, human IgG1, kappa, L234A L235A, V domains shown)
VH: QVQLQQSGVEVKKPGASVTVSCRASGYSFADHFIHWVRQAPGQGFQWMGWINPNRGVTHHAQDFQGRVAMTRDMSTDTVYMELTSLRSDDTAVYYCARDASLTARPYYFYGFDVWGQGTLVTVSS
VL: DIQMTQSPSSVSASVGDRVTITCRASQGISSWLAWYQQKPGKAPKLLIYAASSLQSGVPSRFSGSGSGTDFTLTISSLQPEDFATYYCQQANSFPPAFGQGTKVEIKR
notes: Full-length heavy and light chains with human constant regions; also called anti-FAP antibody Ab10
- EC50 [14]: 92 µg/mL
- EC50 [15]: 0.000432 µg/mL
- Kd [16]: 0.245 nM
- Ratio of KD of 28H1 to KD of test antibody [16]: 5.3
- Ratio of Kd of 28H1 to Kd of test antibody [16]: 3.5
- koff [16]: 7.28e-05 s⁻¹
- kon [16]: 297000 M⁻¹ s⁻¹

B5: Urelumab (positive control anti-4-1BB antibody) (antibody, V domains shown)
VH: QVQLQQWGAGLLKPSETLSLTCAVYGGSFSGYYWSWIRQSPEKGLEWIGEINHGGYVTYNPSLESRVTISVDTSKNQFSLKLSSVTAADTAVYYCARDYGPGNYDWYFDLWGRGTLVTVSS
VL: EIVLTQSPATLSLSPGERATLSCRASQSVSSYLAWYQQKPGQAPRLLIYDASNRATGIPARFSGSGSGTDFTLTISSLEPEDFAVYYCQQRSNWPPALTFGGGTKVEIK
- 4-1BB/NF-κB luciferase reporter, FcγRIIb crosslinking, EC50 [17]: 0.027 nM
- 4-1BB/NF-κB luciferase reporter, no FcγRIIb crosslinking, EC50 [17]: 2.19 nM
- Activation of HEK293-4-1BB cells (NF-κB reporter), Fold change in Emax [18]: 1.7 fold
- FcγRIIb-mediated activation of HEK293-4-1BB cells (NF-κB reporter), Fold change in Emax [18]: 2.61 fold
- EC50 [19]: 1.18 nM
- Maximum fluorescence value [19]: 1000
- EC50 [20]: 1.64 nM
- EC50 [21]: 1.64 nM
- Maximum fluorescence value [21]: 39700

B6: humanized anti-4-1BB nanobody C5_V2 linked to human IgG1-Fc (Fc fusion)
chain: QVQLVESGGGLVQPGGSLRLSCSASGFTFSSYAMSWVRQAPGKGLEWVSDINSGGESTFYEDSVKGRFTISRDNAKNTLYLQMNSLRAEDTAVYYCAKHPLTFTIATMNDYDYWGQGTLVTVSSEPKSADKTHTCPPCPAPELLGGPSVFLFPPKPKDTLMISRTPEVTCVVVDVEHEDPEVKFNWYVDGVEVHNAKTKPREEQYNSTYRVVSVLTVLHQDWLNGKEYKCKVSSKAFPAPIEKTISKAKGQPREPQVYTLPPSRDELTKNQVSLTCLVKGFYPSDIAVEWESNGQPENNYKTTPPVLDSDGSFFLYSKLTVDKSRWQQGNVFSCSVMHEALHNHYTQKSLSLSPGK
- Activation of HEK293-4-1BB cells (NF-κB reporter), Fold change in Emax [18]: 1.37 fold
- FcγRIIb-mediated activation of HEK293-4-1BB cells (NF-κB reporter), Fold change in Emax [18]: 2.02 fold
- EC50 [19]: 1.62 nM
- Maximum fluorescence value [19]: 1030
- EC50 [20]: 0.98 nM
- EC50 [21]: 0.98 nM
- Maximum fluorescence value [21]: 53700

B7: C5_V2-YTI (TCE-optimized C5_V2, F99Y Kabat) linked to human IgG1-Fc (Fc fusion)
chain: B6 chain with F103Y
- EC50 [20]: 0.62 nM
- EC50 [21]: 0.62 nM
- Maximum fluorescence value [21]: 53800
